From paper PMC11094138 (2024)
Each block holds one binder with its values, some of them ahead of it.

Target: WDR5^22–334 (human, UniProt P61964 22-334)
Assay: ITC

- Kd: 2000 nM
B1: MLL1^3762–3772_A3764R (peptide)
peptide: GSRRAEVHLRK

- Kd: 1800 nM
B2: MLL1 WIN motif MLL1^3762–3772 (peptide)
peptide: GSARAEVHLRK
